Laboratory results as given in patent publication US8088387B2, “Method of targeting specific cell populations using cell-binding agent maytansinoid conjugates linked via a non-cleavable linker, said conjugates, and methods of making said conjugates” (Immunogen Inc., priority 2003, dated 2012).

How the values were obtained:
[1] = tested on: L1210 mouse leukemia system; conditions: cited from earlier work
[2] = tested on: human B-16 melanocarcinoma system; conditions: cited from earlier work
[3] = tested on: human acute lymphoblastic leukemia line C.E.M.; conditions: cited from earlier work
esterase = esterase cleavage of the C-3 ester; type: in vitro ADME
From the text: Some linkers can be cleaved by esterases. Again only certain esters can be cleaved by esterases present inside or outside cells. Esters are formed by the condensation of a carboxylic acid and an alcohol. Simple esters are esters produced with simple alcohols, such as aliphatic alcohols, and small cyclic and small aromatic alcohols.

[4] = tested on: LY5178 murine leukemic cell suspension; conditions: in vitro; cited from earlier work
[5] = tested on: P388 lymphocytic leukemia system; conditions: in vivo; cited from earlier work
[6] = tested on: P388 murine leukemic cell suspension; conditions: in vitro; most sensitive line; cited from earlier work
[7] = tested on: human nasopharyngeal carcinoma cells; conditions: cited from earlier work
[8] = tested on: Lewis lung carcinoma system; conditions: cited from earlier work
[9] = human, in vivo; cited from earlier work
L1210 cells = conditions: treatment of L1210 cells in vivo; cited from earlier work
[10] = tested on: L1210 murine leukemic cell suspension; conditions: in vitro; cited from earlier work
Namalwa cells = test: cell destroying activity, antigen-negative cells (bystander study); type: cell-based
From the text: (§1) An additional aspect of conjugates prepared with non-cleavable linkers compared to conjugates that have cleavable disulfide linkers is the absence of activity toward antigen-negative cells when in close proximity to antigen-positive cells, termed here the bystander effect. That is, the conjugates prepared with non-cleavable linkers have minimal bystander activity. […] This minimal bystander activity of the non-cleavable conjugate, as measured in this in vitro assay, may contribute to the increased tolerability of conjugate with non-cleavable linkers observed in acute toxicity studies.

[11] = acute toxicity test, single intravenous dose; type: in vivo, female CD-1 mice
Description: Maytansinoid conjugates prepared with non-cleavable linkers such as SMCC show an unexpected increased tolerability in mice compared with conjugates prepared with cleavable disulfide linkers. An acute toxicity test with a single intravenous dose was carried out in female CD-1 mice. A comparison of the tolerability of a huC242-SMCC-DM1 conjugate (non-cleavable) with huC242 conjugates prepared with linkers containing cleavable disulfide bonds was conducted by monitoring the death of mice (FIGS. 12A and B) and signs of toxicity (FIGS. 12C and D) over a series of four escalating doses of each conjugate. The maximum tolerated dose (MTD) for the SMCC-DM1 conjugate was greater than the highest dose tested (150 mg/kg) while the MTD for the disulfide-linked conjugate SPP-DM1 was in the range of 45-90 mg/kg.

COLO205 cells = test: cell cycle arrest by flow cytometry; type: cell-based, human; conditions: 30 hours post-treatment
Description: Maytansinoid conjugates are thought to impart their cell destroying activity through the inhibition of microtubule polymerization. This inhibition of microtubule polymerization leads to an arrest of the cell cycle principally at G2/M. The antigen-dependent arrest of cells at G2/M by antibody-maytansinoid conjugates can be monitored by flow cytometry analysis (FIG. 13). Treatment of COLO205 cells with huC242-SPP-DM1 or huC242-SMCC-DM1 conjugate results in a complete G2/M arrest by 6-10 hours. […] The difference in the durability of the activity of these two conjugates is also reflected in percentage of dead cells at the 30 hour time point, as judged by a dye exclusion assay using trypan blue.

[12] = plasma clearance of conjugates; type: in vivo; conditions: plasma, conjugate, FIG. 11
From the text: This is in sharp contrast to plasma clearance of conjugates prepared with relatively labile disulfide bonds such as huC242-SPP-DM1. […] The non-cleavable SMCC linkage is therefore much more resistant to maytansinoid-linker cleavage activities present in vivo than the SPP-DM1 conjugate. […] This increased exposure could have substantial impact on drug efficacy in some cases.

COLO 205 cell line = test: cell destroying activity, antigen-positive cells (bystander study); type: cell-based, human; conditions: COLO 205 cultured separately
From the text: as §1

[13] = Pharmacokinetic Studies of huC242-SPP-DM1 and huC242-SCC-DM1 conjugates inCD-1 Mice Plasma clearance curves and Pharmacokinetic parameters
From the text: Table printed on a drawing sheet, FIG. 11
Title: Pharmacokinetic Studies of huC242-SPP-DM1 and huC242-SCC-DM1 conjugates inCD-1 Mice Plasma clearance curves and Pharmacokinetic parameters
First reader's note: Rows without -DM1 (huC242-SMCC, huC242-SPP) appear to be the antibody component of the same conjugates, as in the plot legend; study in CD-1 mice.

[14] = in vitro clonogenic / indirect cytotoxicity assays, cell line not given; type: cell-based; conditions: for cytotoxicity in clonogenic assays in vitro: FIGS. 9, 22, 28
From the text: Cell-binding agent maytansinoid conjugates of the invention can be evaluated for their ability to suppress proliferation of various cell lines in vitro. For example, cell lines such as the human colon carcinoma line COLO205, the human melanoma cell line A375, the human myeloid leukemia cell line HL60, the human breast carcinoma line SKBR3, or the human epidermoid carcinoma cell line KB can be used for the assessment of cytotoxicity of these conjugates. Cells to be evaluated can be exposed to the compounds for 24 hours and the surviving fractions of cells measured in direct assays by known methods. (See, e.g. Goldmacher et al., 135 J. Immunol. 3648-3651 (1985), and Goldmacher et al., 102 J. Cell Biol. 1312-1319 (1986).) IC50 values can then be calculated from the results of the assays.

COLO 205 cells = test: indirect FACS binding assay on COLO 205 cells; design: species or system human; conditions: higher than free huC242 antibody; COLO 205 cells
Description: The inventors carried out binding and cytotoxicity studies on the huC242-non-S-containing non-cleavable linker-DM1 conjugate. First, the binding affinities of huC242 antibody, huC242-SMNP-DM3, and huC242-non-S-containing non-cleavable linker-DM1 to COLO 205 cells were compared. 5×10^3 cells per well were used, with a three hour primary incubation on ice. The huC242-non-S-containing non-cleavable linker-DM1 conjugate had about a two-fold higher apparent dissociation constant than free antibody (see FIG. 23).

Molecule: COc1cc2cc(c1Cl)N(C)C(=O)C[C@H](OC(=O)[C@H](C)N(C)C(C)=O)[C@]1(C)O[C@H]1[C@H](C)[C@@H]1C[C@@](O)(NC(=O)O1)[C@H](OC)/C=C/C=C(\C)C2 [Maytansine]
- inhibitory activity in vivo [1]: significant inhibitory activity
- inhibitory activity in vivo [2]: significant inhibitory activity
- lowest inhibitory concentration [3]: 10^−7 μg/ml
- cleavage of the ester at C-3 by esterases (esterase): no esterase that cleaved the ester at C-3
- inhibitory doses [4]: 10^−3 to 10^−1 μg/ml
- dosage range over which tumor growth was inhibited [5]: 50- to 100 fold
- inhibitory doses [6]: 10^−3 to 10^−1 μg/ml
- inhibition of in vitro growth [7]: active inhibitor
- inhibitory activity in vivo [8]: significant inhibitory activity
- clinical outcome / adverse effects [9]: not favorable due to a number of side effects
- cells accumulating in mitosis (L1210 cells): 67%
- inhibitory doses [10]: 10^−3 to 10^−1 μg/ml

B1: huC242-SPP-DM1: huC242 DM1 conjugate with relatively labile cleavable disulfide linker SPP (conjugate, chains of the INN, looked up)
VH: QVQLVQSGAEVKKPGETVKISCKASDYTFTYYGMNWVKQAPGQGLKWMGWIDTTTGEPTYAQKFQGRIAFSLETSASTAYLQIKSLKSEDTATYFCARRGPYNWYFDVWGQGTTVTVSS
VL: DIVMTQSPLSVPVTPGEPVSISCRSSKSLLHSNGNTYLYWFLQRPGQSPQLLIYRMSNLVSGVPDRFSGSGSGTAFTLRISRVEAEDVGVYYCLQHLEYPFTFGPGTKLELK
modifications: DM1 via SPP disulfide linker
- cell destroying activity (Namalwa cells; Namalwa cultured separately): no activity
- bystander cell destroying activity toward Namalwa cells (Namalwa cells; co-cultures of COLO 205 and Namalwa cells): dramatic cell destroying activity
- time by which lethal toxicity was observed for all mice ([11]; at 150 mg/kg, post-treatment): ≤ 96 h
- survival / lethal toxicity ([11]; at 150 mg/kg, single intravenous dose): lethal toxicity was observed for all mice
- maximum tolerated dose (MTD) ([11]; single intravenous dose, female CD-1 mice): 45 to 90 mg/kg
- durability of cell cycle arrest (COLO205 cells): escape from cell cycle arrest and reinitiate cell division
- half-life for clearance [12]: 40 to 50 h
- cell destroying activity (COLO 205 cell line): potent cell destroying activity
- AUC | [13]: 9205.7 µg·h/mL
- CL | [13]: 1.1 mL/h/kg
- Cmax | [13]: 191.4 µg/mL
- Vss | [13]: 0.0926 L/kg
- t1/2 | hour [13]: 49.8 h

B2: huC242-non-S-containing non-cleavable linker-DM1: huC242 conjugated with a maytansinoid active ester forming a non-sulfur-containing non-cleavable linker (conjugate, chains of the INN, looked up)
VH: QVQLVQSGAEVKKPGETVKISCKASDYTFTYYGMNWVKQAPGQGLKWMGWIDTTTGEPTYAQKFQGRIAFSLETSASTAYLQIKSLKSEDTATYFCARRGPYNWYFDVWGQGTTVTVSS
VL: DIVMTQSPLSVPVTPGEPVSISCRSSKSLLHSNGNTYLYWFLQRPGQSPQLLIYRMSNLVSGVPDRFSGSGSGTAFTLRISRVEAEDVGVYYCLQHLEYPFTFGPGTKLELK
modifications: DM1 via non-sulfur non-cleavable linker
- in vitro cytotoxicity compared with huC242-SMNP-DM3 ([14]; FIG. 22): comparable to huC242-SMNP-DM3
- cytotoxicity in clonogenic assays in vitro [14]: potent and antigen-specific cytotoxicity
- IC50 ([14]; in vitro cytotoxicity, FIG. 22): 7 pM
- apparent dissociation constant relative to free antibody (COLO 205 cells): two

B3: huC242-SIAB-DM1: huC242 conjugate of DM1 synthesized with the non-cleavable linker SIAB (conjugate, chains of the INN, looked up)
VH: QVQLVQSGAEVKKPGETVKISCKASDYTFTYYGMNWVKQAPGQGLKWMGWIDTTTGEPTYAQKFQGRIAFSLETSASTAYLQIKSLKSEDTATYFCARRGPYNWYFDVWGQGTTVTVSS
VL: DIVMTQSPLSVPVTPGEPVSISCRSSKSLLHSNGNTYLYWFLQRPGQSPQLLIYRMSNLVSGVPDRFSGSGSGTAFTLRISRVEAEDVGVYYCLQHLEYPFTFGPGTKLELK
modifications: DM1 via SIAB linker
- cytotoxicity in clonogenic assays in vitro [14]: potent and antigen-specific cytotoxicity
